Here are results for one molecule from paper PMC3118421.

This experiment has as its target human dimeric IgA2 anti-NIP, wild type (not stated | human | mouse). As to the kind of experiment: rosetting assay.

B1: streptococcal IgA-binding M protein Arp4 (M4) (natural protein)
chain: AEIKKPQADSAWNWPKEYNALLKENEELKVEREKYLSYADDKEKDPQYRALMGENQDLRKREGQYQDKIEELEKERKEKQERQEQLERQYQIEADKHYQEQQKKHQQEQQQLEAEKQKLAKDKQISDASRQGLSRDLEASRAAKKELEAEHQKLKEEKQISDASRQGLSRDLEASREAKKKVEADLAALTAEHQKLKEDKQISDASRQGLSRDLEASREAKKKVEADLAEANSKLQALEKLNKELEEGKKLSEKEKAELQARLEAEAKALKEQLAKQAEELAKLKGNQTPNAKVAPQANRSRSAMTQQKRTLPST
B1 yielded a percent inhibition of dIgA binding to hFcα/μR (rosettes, Arp4 at 100 μg/mL) of 50%.
